Data on one molecule can be found in US20260234667A1.

The assay deals with human CXCR3 isoform 1 (human) (UniProt P49682). Description: cell-based or functional assay.
Chain of UniProt P49682 (P49682 whole entry, canonical isoform): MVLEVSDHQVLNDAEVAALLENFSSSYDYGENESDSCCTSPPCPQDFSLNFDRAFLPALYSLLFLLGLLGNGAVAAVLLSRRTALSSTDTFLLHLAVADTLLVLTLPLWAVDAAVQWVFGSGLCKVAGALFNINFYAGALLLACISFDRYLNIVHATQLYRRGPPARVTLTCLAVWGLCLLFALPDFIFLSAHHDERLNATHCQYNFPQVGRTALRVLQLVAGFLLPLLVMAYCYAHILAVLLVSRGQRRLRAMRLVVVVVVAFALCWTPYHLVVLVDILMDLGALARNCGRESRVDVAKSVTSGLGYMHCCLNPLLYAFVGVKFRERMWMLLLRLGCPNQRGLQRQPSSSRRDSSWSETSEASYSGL

B1: ITAC (CXCL11) (ligand, UniProt O14625 22-94, looked up, species assumed)
C-X-C motif chemokine 11: FPMFKRGRCLCIGPGVKAVKVADIEKASIMYPSNNCDKIEVIITLKENKGQRCLNPKSKQARLIIKKVERKNF
With B1, the migration of B cells to 100 ng/ml ITAC (CXCL11), fold increase against control cells stood at 10 fold; the migration of CD4 cells to 100 ng/ml ITAC (CXCL11), fold increase against control cells was above 4 fold; the migration of CD8 cells to 100 ng/ml ITAC (CXCL11), fold increase against control cells is 2.5 fold.
